Results taken from patent US12691186B2, “B7-H3 miniproteins, conjugates, and uses thereof” (priority 2023, dated 2026).

How the values were obtained:
[1] = In vitro metabolic stability, plasma; type: in vitro ADME; set-up: unit not given here; settings: 37° C.
Method: (§1) Exemplary miniprotein conjugates were spiked into biological matrices at initial concentration between 1-2 μM. Tested matrices were varied by species (mouse, rat, human) and type (plasma, serum, and kidney brush border membrane preparations tested each from 0.625-100 μg/mL protein content). Tested conditions were incubated with TAs at 37° C. for 4 hours. At collection points of 0, 15, 30, 60, 120, 240 minutes, 50 μL of each condition were quenched by organic solvent (methanol or acetonitrile) or the addition of 4% phosphoric acid solution. Fractions of each quenched timepoint were subsequently assayed for parent TA concentration by high resolution LC-MS. Percent-parent-remaining-time plots were constructed from the ratio of each given time collection to the time-zero parent TA. Percent-parent-remaining in mouse serum and plasma for exemplary miniproteins are recorded in Table 8.

[2] = In vitro metabolic stability, kidney brush border membrane preparations (KBBM); type: in vitro ADME; set-up: unit not given here; settings: mouse kidney brush border membrane preparation, 37° C.
Method: as §1

Substance | In vitro Stability (mouse) - Plasma [1] | In vitro Stability (mouse) - KBBM [2]
C317 (CAXEKIAALSEIIWLPCLTYAQIXAFIARLNDDPCQSAEILSEAXELCS; DOTA-PEG4 N-term, methylarginine, methyllysines, C-amide; SITE 3 Rme; SITE 24 monomethyllysine; SITE 45 monomethyllysine) [Compound C317] | >12 | 
C349 (CAREKIAALSEIIWLPCLTYAQIXAFIAALNDDPCQSAEILSEAQELCS; DOTA-PEG4, methyl-Lys, C-terminal amide; SITE 24 monomethyllysine) [Compound C349] | >12 | >12
C313 (CAXEKIAALSEIIWLPCLTYAQIXAFIAALNDDPCNSSEILSEAXELCS; DOTA-PEG4 N-term, methylated lysines, C-amide; SITE 3 trimethyllysine; SITE 24 monomethyllysine; SITE 45 monomethyllysine) [Compound C313] | >12 | >12
C303 (CAREKIAALSEIIWLPCLTYAQIXAFIAALNDDPCQSANILSEAXELCS; DOTA-PEG4 N-term, methyllysines, C-amide; SITE 24 monomethyllysine; SITE 45 monomethyllysine) [Compound C303] | >12 | >12
C305 (CAXEKIAALSEIIWLPCLTYAQIXAFIAALNDDPCQSSEILSEAXELCS; DOTA-PEG4 N-term, methylated lysines, C-amide; SITE 3 trimethyllysine; SITE 24 monomethyllysine; SITE 45 monomethyllysine) [Compound C305] | >12 | >12
C319 (CAXEKIAALSEIIWLPCLTYAQIXAFIAXLNXDPCQSSEILSEAXELCS; DOTA-PEG4 N-term, methyllysines, citrulline, C-amide; SITE 3 trimethyllysine; SITE 24 dimethyllysine; SITE 29 monomethyllysine; SITE 32 citrulline; SITE 45 monomethyllysine) [Compound C319] | >12 | >12
C311 (CAXEKIAALSEIIWLPCLNYAQIXAFIAALNDDPCQSSEILSEAXELCS; DOTA-PEG4 N-term, methylated lysines, C-amide; SITE 3 trimethyllysine; SITE 24 monomethyllysine; SITE 45 monomethyllysine) [Compound C311] | >12 | >12
C307 (CAXEKIAALSEIIWLPCLTYAQIXAFIXALNDDPCQSSEILSEAXELCS; DOTA-PEG4 N-term, methylated lysines, C-amide; SITE 3 trimethyllysine; SITE 24 monomethyllysine; SITE 28 monomethyllysine; SITE 45 monomethyllysine) [Compound C307] | >12 | >12
C493 (CAREKINALGEIIWLPCLTYDQIXAFIAXLNDDPCQSSEILSEAXELCS; not fully specified; DOTA-PEG4, methyl-Lys, C-terminal amide; SITE 24 monomethyllysine; SITE 29 monomethyllysine; SITE 45 monomethyllysine) [Compound C493] | >12 | >12
C467 (CAREKINALGEIIWLPCLTYDQIXAFIAALNDDPCQSSEILSEAXELCS; not fully specified; DOTA-PEG4, methyl-Lys, C-terminal amide; SITE 24 monomethyllysine; SITE 45 monomethyllysine) [Compound C467] | >12 | >12
C354 (CAREKIAALSEIIWLPCLTYAQIXAFIAALNDDPCQSSEILSEAXELCS; not fully specified; DOTA-PEG4, methyl-Lys, C-terminal amide; SITE 24 monomethyllysine; SITE 45 monomethyllysine) [Compound C354] | >12 | >12
